In one data set the test system is MDA-MB-231 xenograft. Briefly: MDA-MB-231 murine xenograft efficacy model. The format is in vivo, mouse. Here is the method: Murine xenograft experiments were conducted at WuXi AppTec and/or Charles River Laboratories and the care and use of animals was conducted in accordance with the regulations of the Association for Assessment and Accreditation of Laboratory Animal Care (AAALAC). MDA-MB-231 tumor cells (ATCC, Manassas, VA, cat #HTB-26) were grown and maintained in L15 medium supplemented with 10% heat inactivated fetal bovine serum, 1% Antibiotic-Antimycotic, and L-glutamine (2 mM) at 37° C. in an atmosphere in 5% CO2, 95% air. BALB/c Nude, female, 6-8 weeks, weighing approximately 18-22 g were purchased from Vital River Laboratory Animal Technology Co., LTD. Mice were inoculated subcutaneously at the right flank with MDA-MB-231 tumor cells (e.g., triple negative breast cancer cells) (10×10^6) in 0.2 mL of PBS with Matrigel (1:1) for tumor development. Animals were randomized and treatment was started when the average tumor volume reached approximately 150-200 mm^3 for the efficacy study. Dosing volume was adjusted based on body weight and was administered at 10 mL/Kg. […] Free MMAE payload was also tested, and similarly dissolved in 25 mM Histidine 10% sucrose pH 7 and one or more of the following doses, 0.6, 0.06 mg/kg, were administered to the mice i.v. at a QW×4 schedule. Tumor sizes were measured twice weekly in two dimensions using a caliper, and the volume in mm^3 calculated using the formula: V=0.5 a×b^2, where a and b are the long and short diameters of the tumor, respectively. TGI was calculated for each group using the formula: TGI (%)=[1−(Ti−T0)/(Vi−V0)]×100; where Ti is the average tumor volume of a treatment group on a given day, TO is the average tumor volume of the treatment group on the first day of treatment, Vi is the average tumor volume of the vehicle control group on the same day with Ti, and V0 is the average tumor volume of the vehicle group on the first day of treatment.
To characterize the effects of the MMAE payload alone, we included free MMAE at molar equivalency to PDCs, and tested at 0.6 and 0.06 mg/kg, as separate arms.
To characterize the effects of the MMAE payload alone, we included free MMAE at molar equivalency to PDCs, and tested at 0.6 mg/kg.

Data set [1] in a line: Maximum tolerated dose (MTD) study. Type of data set: in vivo, mouse. To be noted: 10 mg/kg i.v. single dose. Here is the method: BALB/c Nude mice, female, 6-8 weeks, weighing approximately 18-22 g were purchased from the Shanghai SLAC Laboratory Animal Co., LTD. MTD studies were conducted at WuXi AppTec and the care and use of animals was conducted in accordance with the regulations of the Association for Assessment and Accreditation of Laboratory Animal Care (AAALAC). Two MTD studies were performed (a) a low dose study with doses ranging from 0.1, 0.5, 1 and 3 mg/kg and (b) a high dose study with doses ranging from 3, 5, 10 mg/kg. Dosing volume was determined based on body weight (10 ul/g) and PDCs were dissolved in 25 mM Histidine 10% sucrose pH 7 and administered i.v. at a single dose at day 0. The treatment and observation were conducted up to 7 days and MTD was defined by ≥20% body weight loss. Body weights were measured daily, death and observed clinical signs were recorded.
Doses of 3, 5, and 10 mg/kg were administered. MTD was defined by ≥20% body weight loss and body weight measured daily.

Data set [2] addresses T1, SORT1 on cells (HEK293 cells transiently transfected with / overexpressing SORT1); SORT1-expressing MDA-MB-231 … (UniProt Q99523 78-831, limits assumed).
T1 sequence (looked up): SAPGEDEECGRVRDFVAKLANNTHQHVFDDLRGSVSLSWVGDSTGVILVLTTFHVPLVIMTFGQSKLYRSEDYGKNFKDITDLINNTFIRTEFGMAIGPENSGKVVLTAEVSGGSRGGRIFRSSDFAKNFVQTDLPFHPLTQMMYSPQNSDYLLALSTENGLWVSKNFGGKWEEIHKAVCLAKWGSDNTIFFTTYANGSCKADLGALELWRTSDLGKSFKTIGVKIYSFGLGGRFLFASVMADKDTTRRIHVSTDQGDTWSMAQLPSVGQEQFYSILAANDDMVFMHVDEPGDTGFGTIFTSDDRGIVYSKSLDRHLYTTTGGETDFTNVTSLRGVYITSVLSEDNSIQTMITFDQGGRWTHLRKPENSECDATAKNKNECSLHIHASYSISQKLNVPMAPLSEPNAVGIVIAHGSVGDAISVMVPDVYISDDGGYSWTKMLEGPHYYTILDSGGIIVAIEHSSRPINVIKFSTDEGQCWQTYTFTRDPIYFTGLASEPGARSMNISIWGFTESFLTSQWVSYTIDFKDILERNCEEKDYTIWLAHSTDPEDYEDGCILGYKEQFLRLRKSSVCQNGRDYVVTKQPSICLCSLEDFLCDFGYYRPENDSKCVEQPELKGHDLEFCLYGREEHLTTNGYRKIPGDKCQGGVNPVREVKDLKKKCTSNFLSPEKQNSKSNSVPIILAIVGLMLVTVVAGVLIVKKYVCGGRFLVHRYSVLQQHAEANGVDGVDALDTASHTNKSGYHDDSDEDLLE
Briefly: cell-based or functional assay.

Where a SMILES comes first, the peptide text is derived from it. [ ]: non-standard residue; d: D form. The star is where a group is joined. Dolaproine = CO[C@@H]([C@@H]1CCCN1)[C@@H](C)C(=O)O; Dil = CC[C@H](C)[C@H](NC)[C@@H](CC(=O)O)OC; X1 = C[C@@H](N*)[C@@H](O)c1ccccc1; NMeV = CN[C@H](C(=O)O)C(C)C

As for `CC[C@H](C)[C@@H]([C@@H](CC(=O)N1CCC[C@H]1[C@H](OC)[C@@H](C)C(=O)N[C@H](C)[C@@H](O)c1ccccc1)OC)N(C)C(=O)[C@@H](NC(=O)[C@@H](NC)C(C)C)C(C)C` [Free MMAE, Monomethyl auristatin E, reference compound] (H-[NMeV]V[Dil][Dolaproine]-X1; N-terminus and C-terminus assumed), the “body weight variation (Example 6)” value in the data set on MDA-MB-231 xenograft (PDC at each dose, free MMAE at equivalency to 3 mg/kg PDC) is recorded as “body weight fluctuations corresponding to treatment times”. In the data set with MDA-MB-231 xenograft (PDCs 3 mg/kg, free MMAE at molar equivalency (0.6 mg/kg)), the “body weight loss (Example 8)” value is reported as “body weight fluctuations corresponding to treatment times”.
Take `CC[C@H](C)[C@@H]([C@@H](CC(=O)N1CCC[C@H]1[C@H](OC)[C@@H](C)C(=O)N[C@H](C)[C@@H](O)c1ccccc1)OC)N(C)C(=O)[C@@H](NC(=O)[C@H](C(C)C)N(C)C(=O)OCc1ccc(NC(=O)[C@H](CCCNC(N)=O)NC(=O)[C@@H](NC(=O)CCCC(=O)NCCC(=O)N(C)CC(=O)N(C)CC(=O)N(C)CC(=O)N(C)CC(=O)N[C@@H](CC(=O)O)C(=O)N[C@@H](CC(=O)O)C(=O)N2CCC[C@H]2C(=O)N[C@@H](CCCNC(=N)N)C(=O)N[C@@H](C)C(=O)N2CCC[C@H]2C(=O)N[C@@H](Cc2c[nH]c3ccccc23)C(=O)N2CCC[C@H]2C(=O)N[C@@H](C)C(=O)N[C@@H](CC(C)C)C(=O)N[C@@H](CCC(N)=O)C(=O)N[C@@H](CCCNC(=N)N)C(=O)N[C@@H](CC(C)C)C(=O)N[C@@H](C)C(=O)N[C@@H](CC(C)C)C(=O)N[C@@H](CCCNC(=N)N)C(=O)N[C@@H](CC(C)C)C(=O)O)C(C)C)cc1)C(C)C` [PRGN_RL_PDC]: the toxicity entry in data set [1] was “mild toxicity”.

B1: Peptide 2-GAPDH6-SPDP (peptide)
peptide: CXXXXXAPRWDAPLRDPALRQXX
modifications: N-terminal Ac; Cys 1 side chain in a disulphide with SPDP on the 5' end of the sense strand of GAPDH siRNA; 2: (bAla); 3-6: (Sar); 22: (B13); 23: (G48)
Consider B1, for which the “GAPDH mRNA % knockdown compared to untreated cells (RT-qPCR), HEK293 + SORT1 - CQ” value (shortened to “GAPDH mRNA % knockdown”) in data set [2] was 36%.

B2: Peptide 2-GAPDH6-BCN (peptide)
peptide: XXXXXXAPRWDAPLRDPALRQXX
modifications: N-terminal 6-azidohexanoic acid joined by a triazole to hexyl-BCN on the 5' end of the sense strand of GAPDH siRNA; 1: (bAla); 2-5: (Sar); 21: (B13); 22: (G48)
With B2, the “GAPDH mRNA % knockdown” value in data set [2] worked out at 47%.

B3: Peptide 2-GAPDH6-thiol (peptide)
peptide: XXXXXAPRWDAPLRDPALRQXX
modifications: not fully specified; N-terminal maleimide joined by a thioether to 6-mercaptohexanoic acid on the 5' end of the sense strand of GAPDH siRNA; 1: (bAla); 2-5: (Sar); 21: (B13); 22: (G48)
On to B3, for which, in data set [2], the “GAPDH mRNA % knockdown” value was 40%.

Values taken from US20260183411A1, “TARGETING SORTILIN” (priority 2024, published 2026).
